How the values were obtained:
[1] = Thermal stability by SYPRO Orange thermal melt in a Roche LightCycler; type: physicochemical; details: for Thermostability apoTm: ligand-free protein, SYPRO Orange, Roche LightCycler
Protocol: The lactate-binding properties of these proteins were determined experimentally (Table 3). These experiments comprise four successive steps: • 1. Synthetic gene construction. The amino acid sequence of the homology leads are back translated into DNA sequences. […] The predicted gene sequences are assembled de novo from synthetic oligonucleotides. • 2. Heterologous protein expression of the homologues in E. coli.

[2] = Lactate-mediated fluorescence emission response of fluorescent conjugates (cysteine and fluorophore scan); type: biochemical; parameters: key to Response Acrylodan Shape / Response Badan Shape / Response Badan Intensity: m, monochromatic; d, dichromatic (i.e. spectral shape changes); 0, no change
Description: Semi-synthetic FRSs can be engineered by site-specifically attaching thiol-reactive, environmentally sensitive fluorophores that respond to ligand-mediated conformational changes. Identification of FRS candidates that can be used for sensing applications comprises three steps: • 1. Cysteine scan. Mutant lactate-binding proteins containing single cysteines are constructed for site-specific attachment of thiol-reactive fluorophores. […] Candidate positions fall into three classes: endosteric, replacing a residue that contacts the ligand directly; peristeric, located at the rim of the binding site; allosteric (Marvin et al., 1997, Proc Natl Acad Sci USA, 94, 4366-71; Marvin, 1998, J Am Chem Soc, 120, 7-11), located outside the binding site at sites that undergo local structural changes in concert with the hinge-bending motion. • 2. Fluorophore screening. Thiol-reactive, environmentally sensitive fluorophores are attached to each cysteine mutant prepared in step 1. • 3. Evaluation of the lactate-mediated change of all the fluorescent conjugates prepared in step 2. Responses to ligand binding in which there is both a change in fluorescence emission intensity and spectral shape are essential for chemometric applications, because such changes enable ratiometric measurements. Changes in spectral shape typically are accompanied by a shift in the wavelength of the emission intensity maxima. Three classes of fluorescent responses are possible: • i. No response. • ii. Monochromatic response (emission intensity increases or decreases without a change in spectral shape) • iii. […] Hypsochromatic: emission intensity shifts to shorter wavelengths upon binding ligand (“blue shift”). • ii. Bathochromatic: emission intensity shifts to longer wavelengths upon binding ligand (“red shift”). • 4.
We constructed seventeen single cysteine mutants in msLacBP6, exploring one endosteric, fourteen peristeric, and two allosteric positions. Two dominant electronic transitions give rise to fluorescence emission in these fluorophores with maxima in the blue (<500 nm) and green (>500 nm) regions, respectively.

[3] = Acrylodan conjugate of msLacBP6 cysteine mutant, response to lactate
[4] = Badan conjugate of msLacBP6 cysteine mutant, response to lactate

B1: msLacBP6: lactate-binding protein from Marinobacter sp. (SEQ ID NO: 6, 20, 120) (protein)
chain: MTDITCKIETKGSARRRGFLKTLAVSAAISATLLASSVQAATTWKIQSVWDAGTVGYDLFKEWCDGMEEKTGGELKFTCFPAKAVAADNNGLFDAVRNGVLQGMNPFTLYWSGKIPASVFLSSYPAGPDQPHQWDTMFYSLGMLEKTREIYKKFGLFYVGPIQHDANIIHSKQPINSLDDLKGLKMRLPGGMVAEVFAKFGVAAVSLPGSDIFPALEKGTIDAADYVGPAVNWELGFSQVTKYILMGPPGIMSVYQPVDLMDLTVNLRAWNALDPKLQQIVEDEVRIYSQKHYLAIQKRNIEAMKKFEAAGTTVTRLSQEDLQEFRRAAIPIWYSWANKDEDAREIFDMQLEYMMNDTVGYITEDDIKGMN
mid-point denaturation temperature [1]: 70 °C | Thermostability apoTm [1]: 70 °C

B2: rsLacBP12: protein from Rhodobacter sphaeroides (SEQ ID NO: 12, 26, 126) (protein)
chain: MTAFEKKAAYSRRSFLRTGALAGGAAAGSVLAAPAVLAQAPLVMKMQTSWPASDIWMDFAREYVTRVEEMSGGRIKVDLLPAGAVVGAFQVMDAVHDGVIDASHSVSAYWYGKSKAASFFGTGPVFGGSATTMLGWFYQGGGQDLYRELTQDILGMNIVGFYGFPMPAQPFGWFKTEVNGVADIQGFKYRTVGLAADLLQAMGMSVAQLPGGEIVPAMERGVIDAFEFNNPSSDMRFGAQDVAKNYYLSSYHQASESFEYTFNRDFYEDLDPDLQAILKYAVEAASTSNTALALRQYSADLATLAAENGVAVHRTPKDILSGQLEAWDKLIVDLEADEFFKKVLDSQRAWVEQVSYYELMNAADLGLAYEHHFPGKLKL
modifications: Rhodobacter sphaeroides
Thermostability apoTm [1]: 48 °C

B3: pgLacBP10: protein from Polymorphum gilvum (SEQ ID NO: 10, 24, 124) (protein)
chain: MTEISRRGLLAGSVFGGVALAAPTVARAQEAVEWRMQALWDAGTTPFEFEKKFVERVGELTEGRFKITLYSAGQIVPANQAFDAVRSGAFEMMKTFDGYEAGKIPAFAFTSTIPFGFPQSDQYEAWFYELGGLDLAREAYAKGGLFYIAPTVYGEEPMHSTVKIESIADMAGKKGRFVGLASAVMADLGVAVSPLATAEVYTALEKGLIDFADRGDLTANYEAGLGEVAKFIILPGVHQPTTATSYVANQAAYQKLPDGFKAALAVAAREISGSLRQHILVQDMEVLTKYKDQGVEVVRLDAADIAAARAKAVESWEKATKGDELATRVLKGQVDFMTSLGLL
Thermostability apoTm [1]: 49 °C

B4: Y187C (conjugate)
chain: MATTWKIQSVWDAGTVGYDLFKEWCDGMEEKTGGELKFTCFPAKAVAADNNGLFDAVRNGVLQGMNPFTLYWSGKIPASVFLSSYPAGPDQPHQWDTMFYSLGMLEKTREIYKKFGLFYVGPIQHDANIIHSKQPINSLDDLKGLKMRLPGGMVAEVFAKFGVAAVSLPGSDIFPALEKGTIDAADCVGPAVNWELGFSQVTKYILMGPPGIMSVYQPVDLMDLTVNLRAWNALDPKLQQIVEDEVRIYSQKHYLAIQKRNIEAMKKFEAAGTTVTRLSQEDLQEFRRAAIPIWYSWANKDEDAREIFDMQLEYMMNDTVGYITEDDIKGMN
modifications: conjugated fluorophore; msLacBP6 (with signal peptide replaced with M)
Response Acrylodan Intensity [2, 3]: + | Response Acrylodan Shape [2, 3]: d^f | Response Badan Intensity [2, 4]: 0 | Response Badan Shape [2, 4]: d^f

B5: fsLacBP13: protein from Flexistipes sinusarabici (SEQ ID NO: 13, 27, 127) (protein, listed as Flexistipes sinusarabici)
chain: MGMMKKLLYSLLIILLVASAGFTAEKKIRWKLAMTWGPTLHPLSDTAEHMAEIVKELSDGNFVINIDASNVHKAPFGIFDMVKLGQYEMGHTASYYYKGKNIAFLPLTTMPFGMTAPEQYAWFYYGGGLELMQEAYTKHGMLAFPGGNTGNQMGGWFTKEINSLDDLKGLKMRIPGFAGQIMSKLGVTVTNIPPGELYTALERGTVDAVEWTGPGMDINMGFHKIAKYYYTGWHEPGSEVEFLINEKEYNKLPEKYKKILKIAMKTAAYDMYIQSYEMNAEAWQQMKEKYPDIKVKVFPEEVLKEMKTAYDNLVASYEKESPMFKKIMESKRAYLDKVRDWTHISDYLYLKSTSESNLN
Thermostability apoTm [1]: 46 °C

B6: ttLacBP1: lactate-binding protein from Thermus thermophilus, seed sequence (SEQ ID NO: 1, 15, 115) (protein, listed as Thermus thermophilus)
chain: MKRVSRRAFLRRLGVGVAATAAFSPLAVAQARRYRWRIQTAWDAGTVGYSLFQKFTERVKELTDGQLEVQPFPAGAVVGTFDMFDAVKTGVLDGMNPFTLYWAGRMPVTAFLSSYALGLDRPDQWETWFYSLGGLDIARRAFAEQGLFYVGPVQHDLNIIHSKKPIRRFEDFKGVKLRVPGGMIAEVFAAAGASTVLLPGGEVYPALERGVIDAADFVGPAVNYNLGFHQVAKYIIMGPPETPAIHQPVDLMDFTINLNRWRSLPKPLQERFIAAVHEYSWIHYAGIQKANLEAWPKYRQAGVEVIRLSNEDVRKFRRLAIPIWFKWAKMDKYSREAFASQLEYMKGIGYVTDEELKGLSL
Thermostability apoTm [1]: >100 °C

B7: adLacBP9: protein from Anaeromyxobacter dehalogenans (SEQ ID NO: 9, 23, 123) (protein)
chain: MKKTTSRSQPDTAPKASRRSFLKKAALGAAGVAAGAAAPTIHVAQAPITLRFQSTWPQKDIFHEFALDYAKKVNEMSGGRLKIEVLAAGSVVKAFDLLDAVSKGTLDGGHGVVAYWYGKNTALALWGSGPAFGMDPNMVLAWHHYGGGRQLLEEIYRSLNLDVVSLMYGPMPTQPLGWFKQKPIAKPDDMKGLKFRTVGLSIDIFNGLGAAVNALPGAEIVPAMDRGLLDAAEFNNASSDRVLGFPDVSKICMLQSFHQCSEQFEILFNGKRFQALPADLKSIISIAAQAASADMSWKAIDRYSSDYFEMRDKQGVKFYSTRPEILKRQLEIWDQVMEKRAAENPTFKKVLESQRRFAQRAARWQNDTNVDFKMAYNHFFGGKKKAT
Thermostability apoTm [1]: 48 °C

B8: psLacBP11: protein from Pseudomonas stuztzeri (SEQ ID NO: 11, 25, 125) (protein)
chain: MKRRHLFGAAALLATLALAGCKDEQSQAPNQQAAGEPAKTYHWKMVTAWPKNYPGLGTSAERLAERVNAMSGGRLTIKVYAAGELVPALEVFDAVSRGTAELGHGASYYWKGKVPTAQFFTSVPFGLSTSEMNAWLSKGGGQAFWDEAYAPFGVKPLVIGNTGMQMGGWYNKEINSLTDLKGLKIRMPGLGGEVLSRLGATTVNLPGGEVFTALQTGAIDATDWVSPYNDLAFGLHKAARYYYYPGWQEPQAVLELLINQKAFDSLPADLQAIVTEASLAASRDMHDDYVYNNALALEQLKQQGTELKRFPDEVLAAMREQSDLILGELAAQSELNGRIWASMKAFQAQVEPMHEISEKELYNWR
Thermostability apoTm [1]: 60 °C

B9: tsLacBP7: lactate-binding protein from Thermus sp. (SEQ ID NO: 7, 21, 121) (protein)
chain: MQAPRFRWRIQSAWDAGTVGYTLFQRFAERVKELTDGQIEIQTFPAGAVVGTFDMFDAVKTGVLDGMHPFTLYWAGRMPVTAFLSSYPLGLDRPDQWETWYYALGGLDLARRAFEEQGLFYVGPVQHDYNLIHSKKPIKSFEDFKGVKLRVPGGMIADVFSAAGAATVLLPGGEVYPALERGVIDAADFVGPAVNYNLGFHQVTKYIIMGPPETPAIHQPVDLADITLNLSRWRAVPKNLQERFEAAVHEWSWIHYAGIQKANLETWPKYKAAGVQIIRLTTVDVRKFRRVAIPIWFKWAKQDKYAREAFASQLEYMKALGYVTDADVRGLSL
modifications: tsLacBP7 (with signal peptide replaced with M)
Thermostability apoTm [1]: >100 °C | fluorescence response to lactate ([2]; in words): strong dichromatic responses

From patent US11099176B2 (Duke University, priority 2015, dated 2021)
